One assay relates to human macrophages. Nature of the assay: Gal-3BP-induced IL-2 secretion in monocyte-derived macrophages (ELISA). The format is cell-based. The procedure: (§1) Monocytes were isolated from peripheral blood of human healthy donors. Monocyte purity as assessed by flow cytometry for CD14 (clone HCD14, BioLegend, San Diego, Calif.) was routinely >97%. Monocytes were cultured for six days with M-CSF (100 ng/ml, Peprotech, Rocky Hill, N.J.) in macrophage serum-free medium (Gibco, Carlsbad, Calif.) supplemented with nutridoma SP (Roche, Nutley, N.J.), and penicillin/streptomycin (Sigma Aldrich).
(§2) Measurement of cytokines was carried out with Ready set Go ELISA kits (eBioscience).
Human blood monocytes were incubated with M-CSF (100 ng/ml) for 6 days to produce monocyte-derived macrophages (MO). These macrophages were incubated with interferon-γ (250 u/ml) for 1 day to produce M1 macrophages or with IL-4 (20 units/ml) to produce M2 macrophages or with PGE-2 (1 μM) to produce Mreg macrophages and then challenged with LPS (10 ng/ml) for another day or with Gal-3BP (10 μg/ml over 48 h).
Human blood monocytes were cultured as in (A) (*P=0.05, ***P<0.0001). These macrophages were incubated with Gal-3BP (0.1,1 and 10 μug/ml) for 6 hours and IL-2 was measured by ELISA. […] Human blood monocytes were cultured as in (A). These macrophages were incubated with Gal-3BP (10 μg/ml) or LPS (10 ng/ml) for 6 hours (***P<0.0001).

The test system of assay [1] is NFAT. The experiment in a line: Gal-3BP-induced IL-2 secretion with or without NFAT inhibitors (ELISA). In kind it is cell-based, human. The settings on record: Gal-3BP 10 μg/ml for the times indicated; FIG. 6A. As to the method: as §2
To determine if NFAT is required for Gal-3BP-induced IL-2 secretion, human blood monocytes were incubated with M-CSF (100 ng/ml) for 6 days to produce monocyte-derived macrophages (M0). […] Macrophages were alternatively treated with Gal-3BP (10 μg/ml) in the absence or presence of CSA (1 μM) or FK506 (1 μM), another known NFAT inhibitor (FIG. 6B). […] (P values are ***0.0004, **0.006 and *0.034)
For orientation: ELISA stands for enzyme-linked immunosorbent assay.

The test system of assay [2] is microRNAs known to be transcriptional targets of NFAT. The experiment in a line: microRNA expression in M0 macrophages after Gal-3BP (miRCURY LNA Array). The format is cell-based. The following applies: Gal-3BP 10 ug/ml; human M0 macrophages; fold-change screen; FIG. 7. As to the method: The targets of NFAT signaling are largely cytokines, growth factors and their receptors, proteins involved in cell-cell interactions, as well as microRNAs (Crabtree and Schreiber, Cell, 138: 210 (2009)). To evaluate Gal-3BP's ability to induce NFAT signaling, microRNA expression in human M0 macrophages following Gal-3BP treatment was measured.
Human M0 macrophages were challenged with Gal-3BP (10 ug/ml), small RNAs were isolated and screened for microRNA expression using miRCURY™ Power Labeling Kit and hybridized on the miRCURY™ LNA Array (v.11.0). The samples were hybridized using a hybridization station and scanned using the Axon GenePix 4000B microarray scanner. GenePix pro V6.0 is used to extract the raw intensity of the image. Differentially expressed microRNAs were identified through fold-change screen. […] These microRNAs reflect increased NFAT activity via Gal-3BP.

Assay [3] concerns NFAT. Nature of the assay: NFAT translocation to nucleus, immunofluorescence microscopy. The following applies: Gal-3BP 10 μg/ml for 2 hours; M0 macrophages; FIG. 5. In kind it is cell-based, human. As to the method: Cells were fixed in formaldehyde 4%, 10-20 min, room temperature. Cells were then permeabilized in chilled methanol, 5-10 min, and −20° C. in and washed extensively with PBS, then blocked using 5% donkey serum in PBS. Primary antibody (Rabbit anti-NFATc2/NFATp (1:50, ImmunoGlobe), diluted in PBS with goat serum 10%) was applied over night in 4° C. Biotin anti-rabbit antibodies (1:200 Molecular Probes) were incubated for 1 hour. Streptavidin, (Alexa Fluor® 594 conjugate*2 mg/mL*Cat. No. S-32356) detection 1:1000 for 1 hour. DAPI (1:1,000, Sigma Aldrich) for 5 min at room temperature.
These macrophages were then incubated with Gal-3BP (10 μg/ml for 2 hours). Both samples were stained with DAPI (nuclear stain) and an antibody to NFAT (anti-NFAT c2/p IG 209, affinity purified rabbit antibody, ImmunoGlobe). Nuclear translocation was assessed by immunofluorescence microscopy (FIG. 5).

Assay [4] has as its system intracellular free Ca^2+ in human M0 macrophages. Nature of the assay: Ca2+ mobilization in M0 macrophages, fluo-4 fluorescence microscopy. In kind it is cell-based. The following applies: Gal-3BP 10 ug/ml; M0 macrophages loaded with 1 μM fluo-4; FIG. 4. As to the method: Human blood monocytes were cultured as described in Example 2 to produce MO macrophages, incubated with 1 μM fluo-4 for 30 minutes to quantify intracellular free Ca^2+ concentrations, and then triggered with Gal-3BP (10 ug/ml) with or without the PLC-γ inhibitor U73122 (10 nM). Thapsigargin (100 nM) served as positive control. Ca^2+ mobilization was assayed by fluorescence microscopy as previously described (Zanoni et al., Nature 460:264 (2009)). Each line is a measurement from a single cell (FIG. 4).

Assay [5] deals with human monocyte-derived macrophages (M0). Nature of the assay: Macrophage phenotype: IL-10, IL-2, IL-12 and IL-6 production (ELISA). The format is cell-based. The settings on record: Gal-3BP 10 μg/ml over 48 h. As to the method:
as §1, §2
Human blood monocytes were incubated with M-CSF (100 ng/ml) for 6 days to produce monocyte-derived macrophages (M0). These macrophages were incubated with interferon-γ (250 units/ml) for 1 day to produce M1 macrophages or with IL-4 (20 units/ml) to produce M2 macrophages or with PGE-2 (1 μM) to produce Mreg macrophages and then challenged with LPS (10 ng/ml) for another day or with Gal-3BP (10 μg/ml over 48 h). […] P values are indicated on the graphs.

B1: Gal-3BP: Galectin-3 binding protein, a secreted 585 (murine 577) amino acid protein; human sequence SEQ ID NO:1 (protein, listed as Homo sapiens)
chain: MTPPRLFWVWLLVAGTQGVNDGDMRLADGGATNQGRVEIFYRGQWGTVCDNLWDLTDASVVCRALGFENATQALGRAAFGQGSGPIMLDEVQCTGTEASLADCKSLGWLKSNCRHERDAGVVCTNETRSTHTLDLSRELSEALGQIFDSQRGCDLSISVNVQGEDALGFCGHTVILTANLEAQALWKEPGSNVTMSVDAECVPMVRDLLRYFYSRRIDITLSSVKCFHKLASAYGARQLQGYCASLFAILLPQDPSFQMPLDLYAYAVATGDALLEKLCLQFLAWNFEALTQAEAWPSVPTDLLQLLLPRSDLAVPSELALLKAVDTWSWGERASHEEVEGLVEKIRFPMMLPEELFELQFNLSLYWSHEALFQKKTLQALEFHTVPFQLLARYKGLNLTEDTYKPRIYTSPTWSAFVTDSSWSARKSQLVYQSRRGPLVKYSSDYFQAPSDYRYYPYQSFQTPQHPSFLFQDKRVSWSLVYLPTIQSCWNYGFSCSSDELPVLGLTKSGGSDRTIAYENKALMLCEGLFVADVTDFEGWKAAIPSALDTNSSKSTSSFPCPAGHFNGFRTVIRPFYLTNSSGVD
With B1, the IL-2 production result is reported as “induces IL-2 production” with human macrophages (Gal-3BP 10 μg/ml or LPS 10 ng/ml for 6 hours, FIG. 1C, P<0.0001); “induced production of IL-2” in the assay on human macrophages (Gal-3BP 10 μg/ml over 48 h, standard ELISA, FIG. 1A, P=0.0003); “production of IL-2” in assay [5] (FIG. 2B). The “IL-2 production, concentration dependence” value with human macrophages (Gal-3BP 0.1, 1 and 10 μg/ml for 6 hours, ELISA, FIG. 1B) was “concentration dependently induces IL-2 production”. For the same molecule, the “IL-2 secretion over time” value in the assay with NFAT [1] is “induced secretion of IL-2”. Moreover, in assay [2], the “Number of eight NFAT-target microRNAs significantly up-regulated” value is listed as “five were significantly up-regulated”. Also, the “NFAT translocation to nucleus” value in the assay on NFAT [3] is on record as “induces NFAT translocation to nucleus”. Also, the “Ca^2+ mobilization” value in assay [4] was “triggers Ca^2+ mobilization”. Also, in assay [5] (FIG. 2A), the IL-10 production result is on record as “moderate IL-10”. Moreover, in assay [5] (FIG. 2C), the IL-12 production result is “no IL-12”. Besides, in assay [5] (FIG. 2D), the IL-6 production entry was “little IL-6”.

(Values after patent US20130095127A1, “METHODS OF INHIBITING INFLAMMATION AND INFLAMMATORY DISEASES USING Gal-3BP (BTBD17B, LGALS3BP, GALECTIN-3 BINDING PROTEIN, MAC-2 BINDING PROTEIN)” (LA JOLLA INSTITUTE FOR ALLERGY AND IMMUNOLOGY, priority 2010, published 2013).)
